In article doi:10.1101/2025.06.13.659133:

Target: dual specificity anti-activin A/B antibody (human IgG1 format) (human)
Test: BLI

B1: mature human activin A (ligand)
chain: GLECDGKVNICCKKQFFVSFKDIGWNDWIIAPSGYHANYCEGECPSHIAGTSGSSLSFHSTVINHYRMRGHSPFANLKSCCVPTKLRPMSMLYYDDGQNIIKKDIQNMIVEECGCS
Q: How did the Kd turn out when B1 was run?
A: 0.13 nM
